Assays:
[1] = system: G. max ALS1 protein; experiment: Colorimetric ALS kinetic assay (Km, kcat) with pyruvate as substrate; assay type: biochemical, Glycine max
Procedure: A survey of known ALS (AcetoLactate Synthase) gene variants (Table 2) was performed, and a number of ALS variants were selected for kinetic evaluation based on breadth and strength of insensitivity to ALS-inhibitor herbicides as well as kinetic activity parameters including the ratio of substrate preferences. The selected ALS gene variants (Table 3) were generated by PCR mediated site-directed mutagenesis. Finnzymes PHUSION® DNA polymerase (Cat. No. F-530S) was used for the PCR reactions, following the instructions for recommended temperatures and cycles in the PHUSION® protocol. Some mutagenesis reactions were assisted by the use of IN-FUSION® enzyme (Clontech Cat. No. 639620) to circularize a linear plasmid with the mutation located within the 15 nucleotide overlapping ends, via recombination following the manufacturer's protocol for primer design and reaction conditions. The ALS genes, beginning with encoded amino acids SISK, (S48 to K51 in the G. max ALS1 protein (SEQ ID NO:1) corresponding to the mature protein N-terminus of the chloroplast localized enzyme), were cloned into the PMAL® E. coli expression vector (New England Biolabs) to express ALS as a fusion protein with a Maltose-Binding Protein (MBP) at the N-terminus with a thrombin site for cleavage and a His-6 tag for affinity purification. All in vitro protein characterization described in the examples was carried out with the isolated proteins after cleavage from the His-MBP fusion partner.
Km and Kcat determinations for recombinant ALS variants (with respect to pyruvate as the substrate) were performed using a colorimetric assay. ALS assays were carried out in 96-well microplates with 150 ul reaction containing 25 mM potassium phosphate, 0.2 mg/ml BSA, 15 mM MgCl2, 0.7 mM TPP, 28 uM FAD and 0-100 mM sodium pyruvate. Reactions were initiated by the addition of ALS enzyme to a final amount of 0.8 ug/well. Parameters for Km and Vmax were determined by fitting the velocity versus substrate concentration data to a rectangular hyperbola using GraphPad Prism software. Kcat values were determined from Vmax based on protein concentration in the reactions.

[2] = system: G. max ALS1 protein; experiment: Substrate specificity ratio (Rf), pyruvate versus 2-ketobutyrate, LC-MS of reduced products; assay type: biochemical, Glycine max; conditions: ratio of [pyruvate] to [2-ketobutyrate] giving equal rates of acetolactate and acetohydroxybutyrate formation; 25 mM pyruvate
Text: The “substrate specificity ratio”, or “Rf”, characterizes the specificity of the ALS enzyme for AHB formation relative to AL formation (Gollop et al. (1989) Biochemistry 28:6310-6317). Rf is the ratio of [pyruvate] to [2-ketobutyrate] that results in equal rates of formation of acetolactate and acetohydroxybutyrate. Rf is a constant at all substrate concentrations. The substrate specificity ratio is ˜114 for the wild type Glycine max ALS1 enzyme (SEQ ID NO:1) compared to ˜3 for the highly resistant allele (HRA) double mutant variant (SEQ ID NO: 10) of the Glycine max ALS1. The soybean HRA sequence is disclosed, for example, in WO2007/024782, herein incorporated by reference.
Substrate preference was determined using the assay described in Example 3; however, the assay was conducted using a constant concentration of pyruvate (25 mM) and varying concentrations of the second substrate, 2-ketobutyrate. Each reaction involving a specific ratio of pyruvate to 2-ketobutyrate, after a set period of time, was quenched by addition of sodium borohydride (7-fold excess) to form the reduced adducts of the products of the two substrates namely; reduced acetolactate for the reaction with pyruvate and reduced aceto hydroxybutyrate for the 2-ketobutyrate reaction. The relative amounts of the two reduced products was determined by first, chromatographic separation using a 4.6×250 mm dC18 column (Atlantis) equilibrated with a 0.1% formic acid solution and subsequent elution using a methanol gradient at 0.7 ml/min, followed by detection using a Thermo FINNIGAN® LTQ® Mass Spectrometer (MS). The products of the two reactions were quantified by integration of the MS signals. The % of the amount of each of the reduced products was then plotted versus the concentration of 2-ketobutyrate. As the 2-ketobutyrate amount increased there was a consequent increase in reduced acetohydroxybutyrate (AHB) and decrease in reduced acetolactate (AL). […] The substrate specificity ratio was ˜114 for the wild type enzyme compared to 3 for the highly resistant allele (HRA) double mutant ALS variant (SEQ ID NO: 10).

B1: GM-ALS_P178A: Glycine Max ALS1 variant with a P→A mutation at position 178 (protein)
chain: MAATASRTTRFSSSSSHPTFPKRITRSTLPLSHQTLTKPNHALKIKCSISKPPTAAPFTKEAPTTEPFVSRFASGEPRKGADILVEALERQGVTTVFAYPGGASMEIHQALTRSAAIRNVLPRHEQGGVFAAEGYARSSGLPGVCIATSGPGATNLVSGLADALMDSVPVVAITGQVARRMIGTDAFQETPIVEVSRSITKHNYLILDVDDIPRVVAEAFFVATSGRPGPVLIDIPKDVQQQLAVPNWDEPVNLPGYLARLPRPPAEAQLEHIVRLIMEAQKPVLYVGGGSLNSSAELRRFVELTGIPVASTLMGLGTFPIGDEYSLQMLGMHGTVYANYAVDNSDLLLAFGVRFDDRVTGKLEAFASRAKIVHIDIDSAEIGKNKQAHVSVCADLKLALKGINMILEEKGVEGKFDLGGWREEINVQKHKFPLGYKTFQDAISPQHAIEVLDELTNGDAIVSTGVGQHQMWAAQFYKYKRPRQWLTSGGLGAMGFGLPAAIGAAVANPGAVVVDIDGDGSFIMNVQELATIRVENLPVKILLLNNQHLGMVVQWEDRFYKSNRAHTYLGDPSSESEIFPNMLKFADACGIPAARVTKKEELRAAIQRMLDTPGPYLLDVIVPHQEHVLPMIPSNGSFKDVITEGDGRTRY
modifications: ALS1 variant P178A
Km [1]: 5 mM
kcat [1]: 1.08 s⁻¹
Substrate specificity ratio (Rf) [2]: 119.0

B2: GM-ALS_P178L_W555L: Glycine Max ALS1 with P→L at position 178 and W→L at position 555 (protein)
chain: MAATASRTTRFSSSSSHPTFPKRITRSTLPLSHQTLTKPNHALKIKCSISKPPTAAPFTKEAPTTEPFVSRFASGEPRKGADILVEALERQGVTTVFAYPGGASMEIHQALTRSAAIRNVLPRHEQGGVFAAEGYARSSGLPGVCIATSGPGATNLVSGLADALMDSVPVVAITGQVLRRMIGTDAFQETPIVEVSRSITKHNYLILDVDDIPRVVAEAFFVATSGRPGPVLIDIPKDVQQQLAVPNWDEPVNLPGYLARLPRPPAEAQLEHIVRLIMEAQKPVLYVGGGSLNSSAELRRFVELTGIPVASTLMGLGTFPIGDEYSLQMLGMHGTVYANYAVDNSDLLLAFGVRFDDRVTGKLEAFASRAKIVHIDIDSAEIGKNKQAHVSVCADLKLALKGINMILEEKGVEGKFDLGGWREEINVQKHKFPLGYKTFQDAISPQHAIEVLDELTNGDAIVSTGVGQHQMWAAQFYKYKRPRQWLTSGGLGAMGFGLPAAIGAAVANPGAVVVDIDGDGSFIMNVQELATIRVENLPVKILLLNNQHLGMVVQLEDRFYKSNRAHTYLGDPSSESEIFPNMLKFADACGIPAARVTKKEELRAAIQRMLDTPGPYLLDVIVPHQEHVLPMIPSNGSFKDVITEGDGRTRY
modifications: ALS1 variant P178L W555L
Km [1]: 36 mM
kcat [1]: 0.35 s⁻¹
Substrate specificity ratio (Rf) [2]: 2.7

B3: GM-ALS_P178A_F559D: Glycine Max ALS1 with P→A at position 178 and F→D at position 559 (protein)
chain: MAATASRTTRFSSSSSHPTFPKRITRSTLPLSHQTLTKPNHALKIKCSISKPPTAAPFTKEAPTTEPFVSRFASGEPRKGADILVEALERQGVTTVFAYPGGASMEIHQALTRSAAIRNVLPRHEQGGVFAAEGYARSSGLPGVCIATSGPGATNLVSGLADALMDSVPVVAITGQVARRMIGTDAFQETPIVEVSRSITKHNYLILDVDDIPRVVAEAFFVATSGRPGPVLIDIPKDVQQQLAVPNWDEPVNLPGYLARLPRPPAEAQLEHIVRLIMEAQKPVLYVGGGSLNSSAELRRFVELTGIPVASTLMGLGTFPIGDEYSLQMLGMHGTVYANYAVDNSDLLLAFGVRFDDRVTGKLEAFASRAKIVHIDIDSAEIGKNKQAHVSVCADLKLALKGINMILEEKGVEGKFDLGGWREEINVQKHKFPLGYKTFQDAISPQHAIEVLDELTNGDAIVSTGVGQHQMWAAQFYKYKRPRQWLTSGGLGAMGFGLPAAIGAAVANPGAVVVDIDGDGSFIMNVQELATIRVENLPVKILLLNNQHLGMVVQWEDRDYKSNRAHTYLGDPSSESEIFPNMLKFADACGIPAARVTKKEELRAAIQRMLDTPGPYLLDVIVPHQEHVLPMIPSNGSFKDVITEGDGRTRY
modifications: ALS1 variant P178A F559D
Km [1]: 40 mM
kcat [1]: 0.6 s⁻¹
Substrate specificity ratio (Rf) [2]: 100.0

B4: GM-ALS_P178L: Glycine Max ALS1 variant with a P→L mutation at position 178 (protein)
chain: MAATASRTTRFSSSSSHPTFPKRITRSTLPLSHQTLTKPNHALKIKCSISKPPTAAPFTKEAPTTEPFVSRFASGEPRKGADILVEALERQGVTTVFAYPGGASMEIHQALTRSAAIRNVLPRHEQGGVFAAEGYARSSGLPGVCIATSGPGATNLVSGLADALMDSVPVVAITGQVLRRMIGTDAFQETPIVEVSRSITKHNYLILDVDDIPRVVAEAFFVATSGRPGPVLIDIPKDVQQQLAVPNWDEPVNLPGYLARLPRPPAEAQLEHIVRLIMEAQKPVLYVGGGSLNSSAELRRFVELTGIPVASTLMGLGTFPIGDEYSLQMLGMHGTVYANYAVDNSDLLLAFGVRFDDRVTGKLEAFASRAKIVHIDIDSAEIGKNKQAHVSVCADLKLALKGINMILEEKGVEGKFDLGGWREEINVQKHKFPLGYKTFQDAISPQHAIEVLDELTNGDAIVSTGVGQHQMWAAQFYKYKRPRQWLTSGGLGAMGFGLPAAIGAAVANPGAVVVDIDGDGSFIMNVQELATIRVENLPVKILLLNNQHLGMVVQWEDRFYKSNRAHTYLGDPSSESEIFPNMLKFADACGIPAARVTKKEELRAAIQRMLDTPGPYLLDVIVPHQEHVLPMIPSNGSFKDVITEGDGRTRY
modifications: ALS1 variant P178L
Km [1]: 14.8 mM
kcat [1]: 4.18 s⁻¹
Substrate specificity ratio (Rf) [2]: 119.0

B5: GM-ALS_P178Q: Glycine Max ALS1 variant with a P→Q mutation at position 178 (protein)
chain: MAATASRTTRFSSSSSHPTFPKRITRSTLPLSHQTLTKPNHALKIKCSISKPPTAAPFTKEAPTTEPFVSRFASGEPRKGADILVEALERQGVTTVFAYPGGASMEIHQALTRSAAIRNVLPRHEQGGVFAAEGYARSSGLPGVCIATSGPGATNLVSGLADALMDSVPVVAITGQVQRRMIGTDAFQETPIVEVSRSITKHNYLILDVDDIPRVVAEAFFVATSGRPGPVLIDIPKDVQQQLAVPNWDEPVNLPGYLARLPRPPAEAQLEHIVRLIMEAQKPVLYVGGGSLNSSAELRRFVELTGIPVASTLMGLGTFPIGDEYSLQMLGMHGTVYANYAVDNSDLLLAFGVRFDDRVTGKLEAFASRAKIVHIDIDSAEIGKNKQAHVSVCADLKLALKGINMILEEKGVEGKFDLGGWREEINVQKHKFPLGYKTFQDAISPQHAIEVLDELTNGDAIVSTGVGQHQMWAAQFYKYKRPRQWLTSGGLGAMGFGLPAAIGAAVANPGAVVVDIDGDGSFIMNVQELATIRVENLPVKILLLNNQHLGMVVQWEDRFYKSNRAHTYLGDPSSESEIFPNMLKFADACGIPAARVTKKEELRAAIQRMLDTPGPYLLDVIVPHQEHVLPMIPSNGSFKDVITEGDGRTRY
modifications: ALS1 variant P178Q
Km [1]: 3 mM
kcat [1]: 2.72 s⁻¹
Substrate specificity ratio (Rf) [2]: 86.0

Source: patent publication US10294487B2, “Methods and compositions involving ALS variants with native substrate preference” (E I DU PONT DE NEMOURS AND COMPANY, priority 2012, dated 2019)
